Measurements reported in paper PMC6239180.

Experiments:
[1] = biological target: T1, hPcf11 (CF II subunit);hClp1 (CF II subunit or alone) (human;human, UniProt O94913;Q92989 1-1555;1-425, |); test: UV cross-linking and immunoprecipitation
[2] = biological target: T1, hPcf11 (CF II subunit);hClp1 (CF II …); test: EMSA

T1 sequence (O94913 whole entry, chain 1 of 2): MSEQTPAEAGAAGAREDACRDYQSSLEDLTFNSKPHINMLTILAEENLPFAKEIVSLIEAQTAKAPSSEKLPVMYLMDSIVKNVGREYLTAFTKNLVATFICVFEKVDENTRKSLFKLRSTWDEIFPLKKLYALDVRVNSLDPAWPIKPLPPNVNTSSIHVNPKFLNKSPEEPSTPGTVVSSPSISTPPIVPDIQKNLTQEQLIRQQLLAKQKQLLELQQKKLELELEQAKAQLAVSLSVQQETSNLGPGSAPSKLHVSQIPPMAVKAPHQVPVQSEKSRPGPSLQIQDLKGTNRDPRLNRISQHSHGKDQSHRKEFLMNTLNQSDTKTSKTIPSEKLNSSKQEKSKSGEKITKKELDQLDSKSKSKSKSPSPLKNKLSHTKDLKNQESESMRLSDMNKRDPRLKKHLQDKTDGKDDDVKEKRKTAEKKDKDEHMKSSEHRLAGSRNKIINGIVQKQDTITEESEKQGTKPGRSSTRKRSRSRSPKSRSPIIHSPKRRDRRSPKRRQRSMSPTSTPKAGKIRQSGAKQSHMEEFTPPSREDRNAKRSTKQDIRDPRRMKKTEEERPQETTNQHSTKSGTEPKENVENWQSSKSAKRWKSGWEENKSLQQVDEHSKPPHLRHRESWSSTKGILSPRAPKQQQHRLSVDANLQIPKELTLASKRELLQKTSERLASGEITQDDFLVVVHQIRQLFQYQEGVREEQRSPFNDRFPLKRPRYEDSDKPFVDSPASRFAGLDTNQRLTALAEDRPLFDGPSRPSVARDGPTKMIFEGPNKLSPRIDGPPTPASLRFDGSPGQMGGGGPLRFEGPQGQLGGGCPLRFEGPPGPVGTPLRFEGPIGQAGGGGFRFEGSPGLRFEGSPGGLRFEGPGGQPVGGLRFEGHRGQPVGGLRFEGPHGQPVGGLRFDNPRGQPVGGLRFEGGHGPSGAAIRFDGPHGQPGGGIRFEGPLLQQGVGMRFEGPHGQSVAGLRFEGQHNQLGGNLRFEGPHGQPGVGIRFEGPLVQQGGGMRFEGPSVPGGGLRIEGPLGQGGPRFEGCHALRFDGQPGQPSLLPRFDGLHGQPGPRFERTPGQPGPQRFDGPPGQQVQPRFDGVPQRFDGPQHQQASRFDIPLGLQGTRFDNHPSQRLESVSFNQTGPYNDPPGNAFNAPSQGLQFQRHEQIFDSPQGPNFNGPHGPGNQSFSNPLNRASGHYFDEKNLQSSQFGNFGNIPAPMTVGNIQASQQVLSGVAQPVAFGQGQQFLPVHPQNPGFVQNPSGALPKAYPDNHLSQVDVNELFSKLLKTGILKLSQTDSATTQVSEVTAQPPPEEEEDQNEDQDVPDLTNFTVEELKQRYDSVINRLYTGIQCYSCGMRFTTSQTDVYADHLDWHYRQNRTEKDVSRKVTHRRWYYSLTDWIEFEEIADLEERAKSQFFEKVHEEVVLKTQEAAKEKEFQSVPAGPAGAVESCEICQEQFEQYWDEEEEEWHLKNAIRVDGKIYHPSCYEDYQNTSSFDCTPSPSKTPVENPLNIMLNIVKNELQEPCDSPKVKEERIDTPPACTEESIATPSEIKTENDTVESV
T1 sequence (Q92989 whole entry, chain 2 of 2): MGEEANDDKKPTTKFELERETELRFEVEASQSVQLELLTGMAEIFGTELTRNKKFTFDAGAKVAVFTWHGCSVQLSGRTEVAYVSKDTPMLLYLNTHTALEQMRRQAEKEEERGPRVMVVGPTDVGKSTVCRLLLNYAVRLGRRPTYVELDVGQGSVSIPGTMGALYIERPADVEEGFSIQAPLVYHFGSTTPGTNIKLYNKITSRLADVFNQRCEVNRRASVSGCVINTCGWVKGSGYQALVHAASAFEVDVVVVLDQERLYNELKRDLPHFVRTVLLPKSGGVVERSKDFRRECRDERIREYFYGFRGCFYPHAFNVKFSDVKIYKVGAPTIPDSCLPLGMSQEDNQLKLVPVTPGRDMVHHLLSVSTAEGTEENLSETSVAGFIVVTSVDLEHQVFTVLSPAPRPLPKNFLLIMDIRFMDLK

## UUUUUUUUUUUUUU (ssRNA) [U14]
[1]
  binding result: binds

## GGGGGGGGGGGGGG (ssRNA) [G14]
[2]
  Kd: ~2 nM
